Data published in US20040235115A1.

T1: streptokinase, P00779
T1 chain: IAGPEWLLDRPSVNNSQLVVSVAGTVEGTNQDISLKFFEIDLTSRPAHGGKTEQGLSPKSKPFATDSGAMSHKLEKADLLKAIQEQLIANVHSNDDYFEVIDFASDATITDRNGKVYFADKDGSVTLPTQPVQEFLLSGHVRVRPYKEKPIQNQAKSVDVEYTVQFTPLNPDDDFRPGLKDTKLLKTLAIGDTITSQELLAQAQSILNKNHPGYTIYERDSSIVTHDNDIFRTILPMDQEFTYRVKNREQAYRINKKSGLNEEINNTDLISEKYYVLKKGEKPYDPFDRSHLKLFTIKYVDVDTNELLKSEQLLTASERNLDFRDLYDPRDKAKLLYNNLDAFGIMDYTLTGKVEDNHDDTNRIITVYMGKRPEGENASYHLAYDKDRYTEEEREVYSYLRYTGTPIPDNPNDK

B1: loop 3 chimeric microplasminogen (protein)
chain: APSFDCGKPQVEPKKCPGRVVGGCVAHPHSWPWQVSLRLNGAHFCGGTLISPEWVLTAAHCLEKSPRPSSYKVILGAHQEVNLEPHVQEIEVSRLFLEPTRKDIALLKLSSPAVITDKVIPACLPSPNYVVADRTECFITGWGETQGTFGAGLLKEAQLPVIENKVCNRYEFLNGRVQSTELCAGHLAGGTDSCQGDSGGPLVCFEKDKYILQGVTSWGLGCARPNKPGVYVRVSRFVTWIEGVMRNN
B2: loop 7 chimeric microplasminogen (protein)
chain: APSFDCGKPQVEPKKCPGRVVGGCVAHPHSWPWQVSLRTRFGMHFCGGTLISPEWVLTAAHCLEKSPRPSSYKVILGAHQEVNLEPHVQEIEVSRLFLHPDSQPDTIDHDIALLKLSSPAVITDKVIPACLPSPNYVVADRTECFITGWGETQGTFGAGLLKEAQLPVIENKVCNRYEFLNGRVQSTELCAGHLAGGTDSCQGDSGGPLVCFEKDKYILQGVTSWGLGCARPNKPGVYVRVSRFVTWIEGVMRNN
B3: loop 5 chimeric microplasminogen (protein)
chain: APSFDCGKPQVEPKKCPGRVVGGCVAHPHSWPWQVSLRTRFGMHFCGGTLISPEWVLTAAHCLEDAADGKVKVILGAHQEVNLEPHVQEIEVSRLFLEPTRKDIALLKLSSPAVITDKVIPACLPSPNYVVADRTECFITGWGETQGTFGAGLLKEAQLPVIENKVCNRYEFLNGRVQSTELCAGHLAGGTDSCQGDSGGPLVCFEKDKYILQGVTSWGLGCARPNKPGVYVRVSRFVTWIEGVMRNN

Biological target: T1, streptokinase, P00779

Row | Protein | activation of microplasminogen by streptokinase (S2251 cleavage, A405)
1 | B1 | all three loop mutants were not efficiently activated by the bacterial plasminogen activator streptokinase
2 | B2 | all three loop mutants were not efficiently activated by the bacterial plasminogen activator streptokinase
3 | B3 | all three loop mutants were not efficiently activated by the bacterial plasminogen activator streptokinase
